In IntAct's records for PubMed 28176834:

B1: Tudor domain-containing protein 3 (Homo sapiens), Q9H7E2-3 (parent)
chain: MAQVAGAALSQAGWYLSDEGIEACTSSPDKVNVNDIILIALNTDLRTIGKKFLPSDINSGKVEKLEGPCVLQIQKIRNVAAPKDNEESQAAPRMLRLQMTDGHISCTAVEFSYMSKISLNTPPGTKVKLSGIVDIKNGFLLLNDSNTTVLGGEVEHLIEKWELQRSLSKHNRSNIGTEGGPPPFVPFGQKCVSHVQVDSRELDRRKTLQVTMPVKPTNDNDEFEKQRTAAIAEVAKSKETKTFGGGGGGARSNLNMNAAGNRNREVLQKEKSTKSEGKHEGVYRELVDEKALKHITEMGFSKEASRQALMDNGNNLEAALNVLLTSNKQKPVMGPPLRGRGKGRGRIRSEDEEDLGNARPSAPSTLFDFLESKMGTLNVEEPKSQPQQLHQGQYRSSNTEQNGVKDNNHLRHPPRNDTRQPRNEKPPRFQRDSQNSKSVLEGSGLPRNRGSERPSTSSVSEVWAEDRIKCDRPYSRYDRTKDTSYPLGSQHSDGAFKKRDNSMQSRSGKGPSFAEAKENPLPQGSVDYNNQKRGKRESQTSIPDYFYDRKSQTINNEAFSGIKIEKHFNVNTDYQNPVRSNSFIGVPNGEVEMPLKGRRIGPIKPAGPVTAVPCDDKIFYNSGPKRRSGPIKPEKILESSIPMEYAKMWKPGDECFALYWEDNKFYRAEVEALHSSGMTAVVKFIDYGNYEEVLLSNIKPIQTEAWEEEGTYDQTLEFRRGGDGQPRRSTRPTQQFYQPPRARN
partner: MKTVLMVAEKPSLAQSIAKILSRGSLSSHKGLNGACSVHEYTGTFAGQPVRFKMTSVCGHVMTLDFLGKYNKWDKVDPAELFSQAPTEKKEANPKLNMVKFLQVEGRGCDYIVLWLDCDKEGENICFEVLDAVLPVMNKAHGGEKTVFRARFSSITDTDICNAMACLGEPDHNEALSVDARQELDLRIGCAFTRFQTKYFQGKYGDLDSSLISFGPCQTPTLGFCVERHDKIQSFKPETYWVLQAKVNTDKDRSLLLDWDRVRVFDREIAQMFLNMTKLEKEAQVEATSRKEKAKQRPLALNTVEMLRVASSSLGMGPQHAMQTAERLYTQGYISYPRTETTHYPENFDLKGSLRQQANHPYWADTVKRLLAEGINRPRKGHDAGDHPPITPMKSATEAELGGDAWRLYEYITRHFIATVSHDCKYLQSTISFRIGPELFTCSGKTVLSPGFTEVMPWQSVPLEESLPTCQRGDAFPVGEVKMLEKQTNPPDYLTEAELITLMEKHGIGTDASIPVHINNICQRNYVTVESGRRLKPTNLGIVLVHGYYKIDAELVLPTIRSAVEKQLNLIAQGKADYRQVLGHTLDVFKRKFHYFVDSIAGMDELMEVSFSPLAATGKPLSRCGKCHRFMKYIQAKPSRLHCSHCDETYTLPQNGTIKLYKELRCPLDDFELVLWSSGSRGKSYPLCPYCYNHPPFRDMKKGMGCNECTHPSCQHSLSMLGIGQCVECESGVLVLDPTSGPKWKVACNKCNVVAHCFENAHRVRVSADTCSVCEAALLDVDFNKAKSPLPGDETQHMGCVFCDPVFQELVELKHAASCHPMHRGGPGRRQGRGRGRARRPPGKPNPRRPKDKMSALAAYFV
B2: DNA topoisomerase 3-beta-1 (Homo sapiens), O95985 (parent)
chain: B1 partner

Variants of: B1
Details: with top3b_human TOP3B, O95985

Variant | effect of a mutation on the interaction
V79S;A80S;A81S;P82S | decreasing interaction strength
F111Y | with no effect
F111S | with no effect
V79S;P82S | decreasing interaction strength
M94S | disrupting interaction strength
F139S;L141S | disrupting interaction strength
R96M;V109M | with no effect
V109M;F111Y;F139V | with no effect
R96M;V109M;F139V | with no effect
V109S | disrupting interaction strength
V109M | with no effect
P92S;M94S | disrupting interaction strength
A80S;A81S | with no effect
R96M;F139V | with no effect
R96M;V109M;F111Y | with no effect
L141S | with no effect
P92S | decreasing interaction strength
R96A | with no effect
R96M | with no effect
V79S | with no effect
P82S | with no effect
R96M;F111Y | with no effect
R96M;F111Y;F139V | with no effect
V109S;F111S | disrupting interaction strength
R96M;V109M;F111Y;F139V | decreasing interaction strength
A80S;A81Q;A90K;A91P;P92S | with no effect
F139V | with no effect
F139S | decreasing interaction strength

Variants of: B2
Details: with TDRD3, Q9H7E2-3

Variant | effect of a mutation on the interaction
D266A | with no effect
